The supplement of paper PMC10567573

B1: NET1 (parent)
chain: RVRPLARVTSLANLISPVRNGAVR
B2: NECAB1 (parent)
chain: FSPNSPQFNVSGPGLLEEDNQWMT
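Further: lentivirally expressed fusions sorted by FACS into six bins by GFP to DsRed ratio, PSI derived from sequencing read proportions per bin multiplied by bin number.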

Variants of: B1
Assay: protein stability index of a GFP-peptide fusion (GPS, HEK-293T) (PSI 1-6); higher = more stable
Details: c terminus: a fixed tail appended
With RVRPLARVTSLANLISPVRNGAVL the protein stability index was 2.2. For RVRPLARVTSLANLISPVRNGAVM, the protein stability index was 2.19. For RVRPLARVTSLANLISPVRNGAVY, the protein stability index was 1.88. With RVRPLARVTSLANLISPVRNGAVE the protein stability index was 3.8. For RVRPLARVTSLANLISPVRNGAVD, the protein stability index was 3.37. RVRPLARVTSLANLISPVRNGAVS showed a protein stability index of 2.74. Work on RVRPLARVTSLANLISPVRNGATR yielded a protein stability index of 3.13. RVRPLARVTSLANLISPVRNGAYR showed a protein stability index of 2.9. In the case of RVRPLARVTSLANLISPVRNGAQR, the protein stability index is reported as 3.73. In the case of RVRPLARVTSLANLISPVRNGAFR, the protein stability index is reported as 2.26. Variant RVRPLARVTSLANLISPVRNGAHR has a protein stability index of 3.43. With RVRPLARVTSLANLISPVRNGAMR the protein stability index was 3.22. In the case of RVRPLARVTSLANLISPVRNGAPR, the protein stability index is reported as 3.86. In the case of RVRPLARVTSLANLISPVRNGANR, the protein stability index is reported as 3.68. RVRPLARVTSLANLISPVRNGAAR showed a protein stability index of 3.08. Work on RVRPLARVTSLANLISPVRNGARR yielded a protein stability index of 3.89. Variant RVRPLARVTSLANLISPVRNGACR has a protein stability index of 2.72. For RVRPLARVTSLANLISPVRNGALR, the protein stability index was 2.66. Variant RVRPLARVTSLANLISPVRNGAGR has a protein stability index of 3.79. With RVRPLARVTSLANLISPVRNGADR the protein stability index was 3.3. Work on RVRPLARVTSLANLISPVRNGAKR yielded a protein stability index of 3.99. With RVRPLARVTSLANLISPVRNGAER the protein stability index was 2.79. For RVRPLARVTSLANLISPVRNGASR, the protein stability index was 3.4. In the case of RVRPLARVTSLANLISPVRNGAWR, the protein stability index is reported as 2.4. In the case of RVRPLARVTSLANLISPVRNGAIR, the protein stability index is reported as 2.7.

Variants of: B2
Assay: as above
Details: c terminus: a fixed tail appended
QSPNSPQFNVSGPGLLEEDNQWMT showed a protein stability index of 4.7. For PSPNSPQFNVSGPGLLEEDNQWMT, the protein stability index was 4.51. For LSPNSPQFNVSGPGLLEEDNQWMT, the protein stability index was 4.55. Work on ESPNSPQFNVSGPGLLEEDNQWMT yielded a protein stability index of 4.79. SSPNSPQFNVSGPGLLEEDNQWMT gave a protein stability index of 4.75. Variant WSPNSPQFNVSGPGLLEEDNQWMT has a protein stability index of 3.85. For MSPNSPQFNVSGPGLLEEDNQWMT, the protein stability index was 4.7. NSPNSPQFNVSGPGLLEEDNQWMT showed a protein stability index of 4.63. Variant ASPNSPQFNVSGPGLLEEDNQWMT has a protein stability index of 4.01. In the case of GSPNSPQFNVSGPGLLEEDNQWMT, the protein stability index is reported as 4.4. In the case of RSPNSPQFNVSGPGLLEEDNQWMT, the protein stability index is reported as 4.33. Work on ISPNSPQFNVSGPGLLEEDNQWMT yielded a protein stability index of 4.33. DSPNSPQFNVSGPGLLEEDNQWMT gave a protein stability index of 4.53. Work on CSPNSPQFNVSGPGLLEEDNQWMT yielded a protein stability index of 3.13. In the case of TSPNSPQFNVSGPGLLEEDNQWMT, the protein stability index is reported as 4.11. In the case of VSPNSPQFNVSGPGLLEEDNQWMT, the protein stability index is reported as 4.34. For KSPNSPQFNVSGPGLLEEDNQWMT, the protein stability index was 4.43. For YSPNSPQFNVSGPGLLEEDNQWMT, the protein stability index was 3.25. HSPNSPQFNVSGPGLLEEDNQWMT gave a protein stability index of 4.23. In the case of FSPMSPQFNVSGPGLLEEDNQWMT, the protein stability index is reported as 2.45. Variant FSPESPQFNVSGPGLLEEDNQWMT has a protein stability index of 3.59. FSPISPQFNVSGPGLLEEDNQWMT showed a protein stability index of 2.67. Variant FSPFSPQFNVSGPGLLEEDNQWMT has a protein stability index of 2.4. Variant FSPLSPQFNVSGPGLLEEDNQWMT has a protein stability index of 2.64. FSPPSPQFNVSGPGLLEEDNQWMT showed a protein stability index of 3.53. For FSPASPQFNVSGPGLLEEDNQWMT, the protein stability index was 3.25. FSPCSPQFNVSGPGLLEEDNQWMT gave a protein stability index of 2.26. In the case of FSPHSPQFNVSGPGLLEEDNQWMT, the protein stability index is reported as 2.53. Variant FSPGSPQFNVSGPGLLEEDNQWMT has a protein stability index of 2.53. Variant FSPKSPQFNVSGPGLLEEDNQWMT has a protein stability index of 2.98. Work on FSPDSPQFNVSGPGLLEEDNQWMT yielded a protein stability index of 3.79. FPPNSPQFNVSGPGLLEEDNQWMT showed a protein stability index of 2.47. With FCPNSPQFNVSGPGLLEEDNQWMT the protein stability index was 2.63. Work on FEPNSPQFNVSGPGLLEEDNQWMT yielded a protein stability index of 4.58. FMPNSPQFNVSGPGLLEEDNQWMT showed a protein stability index of 3.39. FNPNSPQFNVSGPGLLEEDNQWMT showed a protein stability index of 3.28. Variant FLPNSPQFNVSGPGLLEEDNQWMT has a protein stability index of 3.37. With FQPNSPQFNVSGPGLLEEDNQWMT the protein stability index was 2.95. With FTPNSPQFNVSGPGLLEEDNQWMT the protein stability index was 2.23. In the case of FIPNSPQFNVSGPGLLEEDNQWMT, the protein stability index is reported as 1.76. In the case of FFPNSPQFNVSGPGLLEEDNQWMT, the protein stability index is reported as 3.06. FKPNSPQFNVSGPGLLEEDNQWMT gave a protein stability index of 3.63. Variant FVPNSPQFNVSGPGLLEEDNQWMT has a protein stability index of 2.66. Variant FHPNSPQFNVSGPGLLEEDNQWMT has a protein stability index of 2.17. Work on FDPNSPQFNVSGPGLLEEDNQWMT yielded a protein stability index of 4.21. For FWPNSPQFNVSGPGLLEEDNQWMT, the protein stability index was 2.58. FAPNSPQFNVSGPGLLEEDNQWMT gave a protein stability index of 1.79. FRPNSPQFNVSGPGLLEEDNQWMT gave a protein stability index of 3.65. For FGPNSPQFNVSGPGLLEEDNQWMT, the protein stability index was 2.08. In the case of FYPNSPQFNVSGPGLLEEDNQWMT, the protein stability index is reported as 3.49. For FSVNSPQFNVSGPGLLEEDNQWMT, the protein stability index was 2.88. Variant FSMNSPQFNVSGPGLLEEDNQWMT has a protein stability index of 3.22. Variant FSINSPQFNVSGPGLLEEDNQWMT has a protein stability index of 3.33. FSWNSPQFNVSGPGLLEEDNQWMT gave a protein stability index of 2.04. Variant FSTNSPQFNVSGPGLLEEDNQWMT has a protein stability index of 3.05. FSYNSPQFNVSGPGLLEEDNQWMT gave a protein stability index of 2.62. With FSENSPQFNVSGPGLLEEDNQWMT the protein stability index was 3.71. With FSNNSPQFNVSGPGLLEEDNQWMT the protein stability index was 2.76. In the case of FSQNSPQFNVSGPGLLEEDNQWMT, the protein stability index is reported as 3.26. Variant FSGNSPQFNVSGPGLLEEDNQWMT has a protein stability index of 2.2. FSSNSPQFNVSGPGLLEEDNQWMT showed a protein stability index of 2.68. Variant FSLNSPQFNVSGPGLLEEDNQWMT has a protein stability index of 2.87. FSFNSPQFNVSGPGLLEEDNQWMT showed a protein stability index of 2.59. FSDNSPQFNVSGPGLLEEDNQWMT gave a protein stability index of 2.24. With FSRNSPQFNVSGPGLLEEDNQWMT the protein stability index was 2.88. Work on FSCNSPQFNVSGPGLLEEDNQWMT yielded a protein stability index of 2.33. With FSANSPQFNVSGPGLLEEDNQWMT the protein stability index was 3.26. Variant FSKNSPQFNVSGPGLLEEDNQWMT has a protein stability index of 3.11. For FSHNSPQFNVSGPGLLEEDNQWMT, the protein stability index was 3.17.
